B1: Compound 73 (peptide)
peptide: H-[dY]FCI[Trp(1-Me)]QDW[Sar]EHRCTGAES-NH2
modifications: disulfide 3-13
SMILES: CC[C@H](C)[C@@H]1NC(=O)[C@@H](NC(=O)[C@H](Cc2ccccc2)NC(=O)[C@H](N)Cc2ccc(O)cc2)CSSC[C@@H](C(=O)N[C@H](C(=O)NCC(=O)N[C@@H](C)C(=O)N[C@@H](CCC(=O)O)C(=O)N[C@@H](CO)C(N)=O)[C@@H](C)O)NC(=O)[C@H](CCCNC(=N)N)NC(=O)[C@H](Cc2c[nH]cn2)NC(=O)[C@H](CCC(=O)O)NC(=O)CN(C)C(=O)[C@H](Cc2c[nH]c3ccccc23)NC(=O)[C@H](CC(=O)O)NC(=O)[C@H](CCC(N)=O)NC(=O)[C@H](Cc2cn(C)c3ccccc23)NC1=O
B2: Compound 23 (peptide)
peptide: Ac-FCIWQDWGEHRCT-NH2
modifications: disulfide 2-12
SMILES: CC[C@H](C)[C@@H]1NC(=O)[C@@H](NC(=O)[C@H](Cc2ccccc2)NC(C)=O)CSSC[C@@H](C(=O)N[C@H](C(N)=O)[C@@H](C)O)NC(=O)[C@H](CCCNC(=N)N)NC(=O)[C@H](Cc2c[nH]cn2)NC(=O)[C@H](CCC(=O)O)NC(=O)CNC(=O)[C@H](Cc2c[nH]c3ccccc23)NC(=O)[C@H](CC(=O)O)NC(=O)[C@H](CCC(N)=O)NC(=O)[C@H](Cc2c[nH]c3ccccc23)NC1=O
B3: Compound 29 (peptide)
peptide: Ac-EGSAICIWQDWGEHRCT-NH2
modifications: disulfide 6-16
SMILES: CC[C@H](C)[C@H](NC(=O)[C@H](C)NC(=O)[C@H](CO)NC(=O)CNC(=O)[C@H](CCC(=O)O)NC(C)=O)C(=O)N[C@H]1CSSC[C@@H](C(=O)N[C@H](C(N)=O)[C@@H](C)O)NC(=O)[C@H](CCCNC(=N)N)NC(=O)[C@H](Cc2c[nH]cn2)NC(=O)[C@H](CCC(=O)O)NC(=O)CNC(=O)[C@H](Cc2c[nH]c3ccccc23)NC(=O)[C@H](CC(=O)O)NC(=O)[C@H](CCC(N)=O)NC(=O)[C@H](Cc2c[nH]c3ccccc23)NC(=O)[C@H]([C@@H](C)CC)NC1=O
B4: Compound 67 (peptide)
peptide: Ac-SEFCI[Trp(1-Me)]QDWGEHRCTGAES-NH2
modifications: disulfide 4-14
SMILES: CC[C@H](C)[C@@H]1NC(=O)[C@@H](NC(=O)[C@H](Cc2ccccc2)NC(=O)[C@H](CCC(=O)O)NC(=O)[C@H](CO)NC(C)=O)CSSC[C@@H](C(=O)N[C@H](C(=O)NCC(=O)N[C@@H](C)C(=O)N[C@@H](CCC(=O)O)C(=O)N[C@@H](CO)C(N)=O)[C@@H](C)O)NC(=O)[C@H](CCCNC(=N)N)NC(=O)[C@H](Cc2c[nH]cn2)NC(=O)[C@H](CCC(=O)O)NC(=O)CNC(=O)[C@H](Cc2c[nH]c3ccccc23)NC(=O)[C@H](CC(=O)O)NC(=O)[C@H](CCC(N)=O)NC(=O)[C@H](Cc2cn(C)c3ccccc23)NC1=O
B5: Compound 49 (peptide)
peptide: Ac-EGSAICI[Trp(1-Me)]QDWGEHRC[Sar]E-NH2
modifications: disulfide 6-16
SMILES: CC[C@H](C)[C@H](NC(=O)[C@H](C)NC(=O)[C@H](CO)NC(=O)CNC(=O)[C@H](CCC(=O)O)NC(C)=O)C(=O)N[C@H]1CSSC[C@@H](C(=O)N(C)CC(=O)N[C@@H](CCC(=O)O)C(N)=O)NC(=O)[C@H](CCCNC(=N)N)NC(=O)[C@H](Cc2c[nH]cn2)NC(=O)[C@H](CCC(=O)O)NC(=O)CNC(=O)[C@H](Cc2c[nH]c3ccccc23)NC(=O)[C@H](CC(=O)O)NC(=O)[C@H](CCC(N)=O)NC(=O)[C@H](Cc2cn(C)c3ccccc23)NC(=O)[C@H]([C@@H](C)CC)NC1=O
B6: Compound 61 (peptide)
peptide: Ac-FCI[Trp(1-Me)]QDWGEHRCTGAES-NH2
modifications: disulfide 2-12
SMILES: CC[C@H](C)[C@@H]1NC(=O)[C@@H](NC(=O)[C@H](Cc2ccccc2)NC(C)=O)CSSC[C@@H](C(=O)N[C@H](C(=O)NCC(=O)N[C@@H](C)C(=O)N[C@@H](CCC(=O)O)C(=O)N[C@@H](CO)C(N)=O)[C@@H](C)O)NC(=O)[C@H](CCCNC(=N)N)NC(=O)[C@H](Cc2c[nH]cn2)NC(=O)[C@H](CCC(=O)O)NC(=O)CNC(=O)[C@H](Cc2c[nH]c3ccccc23)NC(=O)[C@H](CC(=O)O)NC(=O)[C@H](CCC(N)=O)NC(=O)[C@H](Cc2cn(C)c3ccccc23)NC1=O
B7: Compound 43 (peptide)
peptide: Ac-FCIWQDWGEHRCTGAE-NH2
modifications: disulfide 2-12
SMILES: CC[C@H](C)[C@@H]1NC(=O)[C@@H](NC(=O)[C@H](Cc2ccccc2)NC(C)=O)CSSC[C@@H](C(=O)N[C@H](C(=O)NCC(=O)N[C@@H](C)C(=O)N[C@@H](CCC(=O)O)C(N)=O)[C@@H](C)O)NC(=O)[C@H](CCCNC(=N)N)NC(=O)[C@H](Cc2c[nH]cn2)NC(=O)[C@H](CCC(=O)O)NC(=O)CNC(=O)[C@H](Cc2c[nH]c3ccccc23)NC(=O)[C@H](CC(=O)O)NC(=O)[C@H](CCC(N)=O)NC(=O)[C@H](Cc2c[nH]c3ccccc23)NC1=O
B8: Compound 63 (peptide)
peptide: Ac-FCI[1Nal]QDWGEHRCTGAES-NH2
modifications: disulfide 2-12
SMILES: CC[C@H](C)[C@@H]1NC(=O)[C@@H](NC(=O)[C@H](Cc2ccccc2)NC(C)=O)CSSC[C@@H](C(=O)N[C@H](C(=O)NCC(=O)N[C@@H](C)C(=O)N[C@@H](CCC(=O)O)C(=O)N[C@@H](CO)C(N)=O)[C@@H](C)O)NC(=O)[C@H](CCCNC(=N)N)NC(=O)[C@H](Cc2c[nH]cn2)NC(=O)[C@H](CCC(=O)O)NC(=O)CNC(=O)[C@H](Cc2c[nH]c3ccccc23)NC(=O)[C@H](CC(=O)O)NC(=O)[C@H](CCC(N)=O)NC(=O)[C@H](Cc2cccc3ccccc23)NC1=O
B9: Compound 50 (peptide)
peptide: Ac-EGSAICI[2Nal]QDWGEHRC[Sar]E-NH2
modifications: disulfide 6-16
SMILES: CC[C@H](C)[C@H](NC(=O)[C@H](C)NC(=O)[C@H](CO)NC(=O)CNC(=O)[C@H](CCC(=O)O)NC(C)=O)C(=O)N[C@H]1CSSC[C@@H](C(=O)N(C)CC(=O)N[C@@H](CCC(=O)O)C(N)=O)NC(=O)[C@H](CCCNC(=N)N)NC(=O)[C@H](Cc2c[nH]cn2)NC(=O)[C@H](CCC(=O)O)NC(=O)CNC(=O)[C@H](Cc2c[nH]c3ccccc23)NC(=O)[C@H](CC(=O)O)NC(=O)[C@H](CCC(N)=O)NC(=O)[C@H](Cc2ccc3ccccc3c2)NC(=O)[C@H]([C@@H](C)CC)NC1=O

The values below come from patent publication US20220306695A1, “COMPSTATIN ANALOGUES AND THEIR MEDICAL USES” (priority 2019, published 2022).

Positions of bridges follow the written chain, without caps; N, C: chain ends. Non-standard residues stand in square brackets, D forms with d. Trp(1-Me) = Cn1cc(C[C@H](N)C(=O)O)c2ccccc21; 1Nal = N[C@@H](Cc1cccc2ccccc12)C(=O)O; 2Nal = N[C@@H](Cc1ccc2ccccc2c1)C(=O)O; Sar = CNCC(=O)O

In one assay the target is T1, Human C3 (human, UniProt P01024 23-1663).
T1 construct: In SPR the bought human C3 was immobilised on CM5 chips by amine coupling; In the haemolysis assay the C3 is that of diluted human serum; also called complement C3
T1 sequence (P01024 23-1663 limits assumed): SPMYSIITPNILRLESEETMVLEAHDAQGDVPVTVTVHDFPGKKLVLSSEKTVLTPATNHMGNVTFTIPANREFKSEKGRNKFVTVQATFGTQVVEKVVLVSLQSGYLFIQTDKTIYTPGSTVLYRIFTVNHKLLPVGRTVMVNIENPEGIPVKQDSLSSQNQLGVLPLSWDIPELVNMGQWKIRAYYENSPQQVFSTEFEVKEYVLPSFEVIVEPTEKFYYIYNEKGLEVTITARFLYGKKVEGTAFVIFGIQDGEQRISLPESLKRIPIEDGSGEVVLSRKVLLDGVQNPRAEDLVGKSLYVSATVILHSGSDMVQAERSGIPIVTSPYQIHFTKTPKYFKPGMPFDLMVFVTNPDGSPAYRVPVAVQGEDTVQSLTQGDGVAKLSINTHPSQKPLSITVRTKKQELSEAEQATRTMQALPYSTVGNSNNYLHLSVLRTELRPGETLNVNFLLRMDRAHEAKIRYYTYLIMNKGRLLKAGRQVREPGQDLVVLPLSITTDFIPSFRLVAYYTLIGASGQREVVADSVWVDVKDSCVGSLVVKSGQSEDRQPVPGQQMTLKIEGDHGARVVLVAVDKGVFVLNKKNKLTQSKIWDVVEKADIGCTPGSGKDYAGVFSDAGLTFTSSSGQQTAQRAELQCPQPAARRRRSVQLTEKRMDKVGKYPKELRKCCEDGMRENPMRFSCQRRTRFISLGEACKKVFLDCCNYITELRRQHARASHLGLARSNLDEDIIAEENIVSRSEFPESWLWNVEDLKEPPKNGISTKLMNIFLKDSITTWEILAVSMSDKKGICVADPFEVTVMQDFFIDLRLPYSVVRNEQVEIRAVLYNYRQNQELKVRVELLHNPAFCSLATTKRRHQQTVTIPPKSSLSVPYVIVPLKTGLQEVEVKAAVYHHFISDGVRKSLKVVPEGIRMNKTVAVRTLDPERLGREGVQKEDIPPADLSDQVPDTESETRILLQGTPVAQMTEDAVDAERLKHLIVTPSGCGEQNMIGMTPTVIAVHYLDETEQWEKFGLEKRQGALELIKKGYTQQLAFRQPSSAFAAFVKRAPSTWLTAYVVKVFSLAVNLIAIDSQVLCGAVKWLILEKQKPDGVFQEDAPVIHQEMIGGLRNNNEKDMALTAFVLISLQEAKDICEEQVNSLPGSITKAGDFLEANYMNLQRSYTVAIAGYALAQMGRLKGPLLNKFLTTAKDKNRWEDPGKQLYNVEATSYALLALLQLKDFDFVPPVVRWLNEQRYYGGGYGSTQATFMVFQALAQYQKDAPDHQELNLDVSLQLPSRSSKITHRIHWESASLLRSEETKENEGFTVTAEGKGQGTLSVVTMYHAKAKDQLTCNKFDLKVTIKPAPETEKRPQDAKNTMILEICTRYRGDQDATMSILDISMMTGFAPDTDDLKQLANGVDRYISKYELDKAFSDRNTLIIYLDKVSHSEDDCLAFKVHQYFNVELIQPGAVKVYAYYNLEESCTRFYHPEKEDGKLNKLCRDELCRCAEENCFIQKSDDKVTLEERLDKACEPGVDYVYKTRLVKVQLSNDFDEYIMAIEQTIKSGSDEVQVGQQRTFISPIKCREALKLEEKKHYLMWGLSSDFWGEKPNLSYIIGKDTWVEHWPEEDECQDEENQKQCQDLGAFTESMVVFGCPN
The assay can be described thus: SPR, C3 immobilised. A digest of the protocol:
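Peptide series (5-8 concentrations, 60-120 s, up to 10 min dissociation, Tris pH 7.4 running buffer) flowed over ~3000 RU amine-coupled human C3; MgCl₂ regeneration; at least two independent runs.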
Regarding B1, the Kd was determined as 0.3 nM.

In the case of B2, the Kd was 2.8 nM.

B3: the Kd was 21 nM.

Regarding B4, the Kd came out at 0.68 nM.

B5 yielded an equilibrium dissociation constant (Kd) of 3.2 nM.

In turn, B6 returned a Kd of 0.33 nM.

Consider B7, for which the Kd came out at 3.3 nM.

Turning to B8, binding was characterised by a dissociation constant (Kd) of 4.3 nM.

In the case of B9, the Kd was found to be 13 nM.

A further assay addresses T1, Human C3. The assay can be described thus: cell-based or functional assay.
On to B1, for which the “IC50[nM], inhibition of hemolysis” value is below 100 nM.

For B2, the “IC50[nM], inhibition of hemolysis” value is below 100 nM.

For the molecule B3, the “IC50[nM], inhibition of hemolysis” value was below 100 nM.

Consider B4, for which the “IC50[nM], inhibition of hemolysis” value is below 100 nM.

Regarding B5, the “IC50[nM], inhibition of hemolysis” value was below 100 nM.

For B6, the “IC50[nM], inhibition of hemolysis” value is below 100 nM.

For B7, the “IC50[nM], inhibition of hemolysis” value is below 100 nM.

With B8, the “IC50[nM], inhibition of hemolysis” value is below 100 nM.

For B9, the “IC50[nM], inhibition of hemolysis” value is below 100 nM.
